Test [1] has as its target T1, Recombinant Human IL-1β (human, UniProt P01584 117-269). In words: cell-based or functional assay.
Test [2] addresses T1, Recombinant Human IL-1β. Put plainly: SPR (BIACORE), human antigen. How it is done: (§1) The BIACORE assay (Biacore, Inc, Piscataway, N.J.) determines the affinity of antibodies or DVD-Ig molecule with kinetic measurements of on-rate and off-rate constants. Binding of antibodies or DVD-Ig molecule to a target antigen (for example, a purified recombinant target antigen) is determined by surface plasmon resonance-based measurements with a Biacore® 1000 or 3000 instrument (Biacore® AB, Uppsala, Sweden) using running HBS-EP (10 mM HEPES [pH 7.4], 150 mM NaCl, 3 mM EDTA, and 0.005% surfactant P20) at 25° C. All chemicals are obtained from Biacore® AB (Uppsala, Sweden) or otherwise from a different source as described in the text. For example, approximately 5000 RU of goat anti-mouse IgG, (Fcγ), fragment specific polyclonal antibody (Pierce Biotechnology Inc, Rockford, Ill.) diluted in 10 mM sodium acetate (pH 4.5) is directly immobilized across a CM5 research grade biosensor chip using a standard amine coupling kit according to manufacturer's instructions and procedures at 25 μg/ml. Unreacted moieties on the biosensor surface are blocked with ethanolamine. Modified carboxymethyl dextran surface in flowcell 2 and 4 is used as a reaction surface. Unmodified carboxymethyl dextran without goat anti-mouse IgG in flow cell 1 and 3 is used as the reference surface. For kinetic analysis, rate equations derived from the 1:1 Langmuir binding model are fitted simultaneously to association and dissociation phases of all eight injections (using global fit analysis) with the use of Biaevaluation 4.0.1 software. Purified antibodies or DVD-Ig molecule are diluted in HEPES-buffered saline for capture across goat anti-mouse IgG specific reaction surfaces. Antibodies or DVD-Ig molecule to be captured as a ligand (25 μg/ml) are injected over reaction matrices at a flow rate of 5 μl/min. The association and dissociation rate constants, kₒₙ (M⁻¹s⁻¹) and koff (s⁻¹) are determined under a continuous flow rate of 25 μl/minute. Rate constants are derived by making kinetic binding measurements at different antigen concentrations ranging from 10-200 nM. The equilibrium dissociation constant (M) of the reaction between antibodies or DVD-Ig molecules and the target antigen is then calculated from the kinetic rate constants by the following formula: KD=koff/kₒₙ. Binding is recorded as a function of time and kinetic rate constants are calculated.
On the technique in general: Surface plasmon resonance follows binding to a sensor surface in real time, without labels.

In test [3] the target is T1, Recombinant Human IL-1β. Put plainly: capture ELISA: antibody captured by anti-human Fc, biotinylated antigen titrated. Here is the method: (§2) Plates were washed five times in washing buffer (PBS containing 0.05% Tween 20) and blocked for 1 hour at 25° C. with 200 μl per well superblock blocking buffer (Thermo scientific, #37515). Blocking buffer was removed, and 2 μg/ml of each antibody or DVD-Ig molecule in PBS containing 10% superblock, 0.5% Tween-20 was added to the wells at 100 μl per well and incubated at 25° C. for 1 hour. The wells were washed five times in 1×PBST, and 1 μg/ml biotinylated antigen was titrated at 1:6 serial dilutions (for a range of μg to pg in PBS containing 10% superblock, 0.05% tween 20). Each dilution of antigen was then added to the plates and incubated for 1 hour at 25° C. The wells were washed five times in 1×PBST and incubated for 1 hour at 25° C. with polyHRP streptavidin (KPL #474-3000, Gaithersburg, Md.). The wells were washed five times in 1×PBST, and 100 μl of ULTRA-TMB ELISA (Pierce, Rockford, Ill.) were added per well. Following color development the reaction was stopped with 1N HCL and absorbance at 450 nm is measured.
(In an ELISA, binding on a coated surface is turned into a signal by an enzyme label.)

Test [4] addresses T2, Cynomolgus IL-1β (cynomolgus, UniProt P79182 117-268, limits assumed).
T2 sequence (looked up): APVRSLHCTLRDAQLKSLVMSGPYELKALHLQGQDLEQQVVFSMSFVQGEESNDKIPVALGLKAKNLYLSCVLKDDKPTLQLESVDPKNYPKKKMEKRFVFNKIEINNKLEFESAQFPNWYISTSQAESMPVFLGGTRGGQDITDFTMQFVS
Put plainly: cell-based or functional assay.

For test [5], the target named is T3, Recombinant Human IL-1α (human, UniProt P01583 113-271).
T3 construct: Bought recombinant protein; Biotinylated in the capture ELISA; also called hIL-1α; IL-1 alpha
T3 sequence (looked up): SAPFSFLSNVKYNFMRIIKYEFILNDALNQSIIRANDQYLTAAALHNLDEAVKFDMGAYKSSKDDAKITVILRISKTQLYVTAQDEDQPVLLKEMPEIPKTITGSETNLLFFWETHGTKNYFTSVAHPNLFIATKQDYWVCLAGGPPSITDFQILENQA
In words: SPR (BIACORE), human antigen. How it is done: as §1

The target in test [6] is T3, Recombinant Human IL-1α. Put plainly: cell-based or functional assay.
The target of test [7] is T4, Cynomolgus IL-1α (cynomolgus, UniProt P79340 113-271, limits assumed).
T4 sequence (looked up): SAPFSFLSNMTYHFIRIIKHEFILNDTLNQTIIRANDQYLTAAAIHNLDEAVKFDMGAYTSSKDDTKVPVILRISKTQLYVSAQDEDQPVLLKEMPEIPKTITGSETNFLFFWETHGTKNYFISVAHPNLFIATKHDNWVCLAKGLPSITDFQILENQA
Put plainly: cell-based or functional assay.

Test [8] concerns the target T3, Recombinant Human IL-1α. Put plainly: capture ELISA: antibody captured by anti-human Fc, biotinylated antigen titrated. Here is the method: as §2
The target in test [9] is T4, Cynomolgus IL-1α. Put plainly: SPR (BIACORE), cynomolgus antigen.

The values that follow come from patent US20120189541A1 (AbbVie / Abbott, published 2012).

B1: 1B12.1 (antibody, human IgG1, kappa, L234A L235A, V domains shown)
VH: EVQLQESGPGLVKPSETLSLTCTVSGFSLSDYGVSWIRQPPGKGLEWLGLIWGGGDTYYNSPLKSRLTISKDNSKSQVSLKLSSVTAADTAVYYCAKQRTLWGYDLYGMDYWGQGTLVTVSS
VL: DTQVTQSPSSLSASVGDRVTITCITSTDIDVDMNWYQQKPGKPPKLLISQGNTLRPGVPSRFSSSGSGTDFTFTISSLQPEDFATYYCLQSDNLPLTFGQGTKLEIKR
notes: Parent anti-IL-1β antibody; also called 1B12.1VH; 1B12.1VL
For B1, the “Human IL-1β Neutralization Assay EC50 (IL-1 induced hIL-8, MRC-5 cells)” value (from here on “Human IL-1β Neutralization Assay EC50”) in test [1] came to 0.15 nM. Also, in test [2], the Kd – broadly, the constant that tells how readily two partners part at equilibrium – was 0.186 nM; the koff (as a rule, the first-order rate constant of dissociation) stood at 0.00103 s⁻¹; the kon (commonly the second-order rate constant of association) was determined as 5.55e+06 M⁻¹ s⁻¹. For the same molecule, the EC50 (in general, the concentration that produces a half-maximal response) in test [3] is 0.0399 nM.

B2: 1B12.3 (antibody, human IgG1, kappa, L234A L235A, V domains shown)
VH: EVQLQESGPGLVKPSETLSLTCTVSGFSLSDYGVSWIRQPPGKGLEWLGLIWGGGDTYYNSPLKSRLTISKDNSKSQVSLKLSSVTAADTAVYYCAKQRTLWGYDLYGMDYWGQGTLVTVSS
VL: DTVVTQSPAFLSVTPGEKVTITCITSTDIDVDMNWYQQKPDQPPKLLISQGNTLRPGVPSRFSSSGSGTDFTFTISSLEAEDAATYYCLQSDNLPLTFGQGTKLEIKR
notes: Parent anti-IL-1β antibody; also called 1B12.3VH; 1B12.3VL
With B2, the “Human IL-1β Neutralization Assay EC50” value in test [1] is 0.3 nM. Besides, in [2], the Kd was 0.206 nM, the koff was 0.00118 s⁻¹ and the kon turned out to be 5.73e+06 M⁻¹ s⁻¹. Besides, in [3], the EC50 came to 0.0438 nM.

B3: 1B12.6 (antibody, human IgG1, kappa, L234A L235A, V domains shown)
VH: EVQLVESGGGLVQPGGSLRLSCAVSGFTLSDYGVSWIRQAPGKGLEWLGLIWGGGDTYYNSPLKSRLTISKDNSKSTVYLQMNSLRAEDTAVYYCAKQRTLWGYDLYGMDYWGQGTLVTVSS
VL: ETTVTQSPSSLSASVGDRVTITCITSTDIDVDMNWYQQKPGKPPKLLISQGNTLRPGVPSRFSSSGSGTDFTFTISSLQPEDFATYYCLQSDNLPLTFGQGTKLEIKR
notes: Parent anti-IL-1β antibody; also called 1B12.6VH; 1B12.6VL
Take B3: the “Human IL-1β Neutralization Assay EC50” value in test [1] is 0.38 nM. In test [2], the Kd was determined as 0.202 nM, the koff is 0.00125 s⁻¹ and the kon was 6.2e+06 M⁻¹ s⁻¹. The EC50 in test [3] was 0.0459 nM.

B4: E26.13-SS-3D12.10/15 (bispecific antibody, human IgG1, kappa, L234A L235A)
heavy: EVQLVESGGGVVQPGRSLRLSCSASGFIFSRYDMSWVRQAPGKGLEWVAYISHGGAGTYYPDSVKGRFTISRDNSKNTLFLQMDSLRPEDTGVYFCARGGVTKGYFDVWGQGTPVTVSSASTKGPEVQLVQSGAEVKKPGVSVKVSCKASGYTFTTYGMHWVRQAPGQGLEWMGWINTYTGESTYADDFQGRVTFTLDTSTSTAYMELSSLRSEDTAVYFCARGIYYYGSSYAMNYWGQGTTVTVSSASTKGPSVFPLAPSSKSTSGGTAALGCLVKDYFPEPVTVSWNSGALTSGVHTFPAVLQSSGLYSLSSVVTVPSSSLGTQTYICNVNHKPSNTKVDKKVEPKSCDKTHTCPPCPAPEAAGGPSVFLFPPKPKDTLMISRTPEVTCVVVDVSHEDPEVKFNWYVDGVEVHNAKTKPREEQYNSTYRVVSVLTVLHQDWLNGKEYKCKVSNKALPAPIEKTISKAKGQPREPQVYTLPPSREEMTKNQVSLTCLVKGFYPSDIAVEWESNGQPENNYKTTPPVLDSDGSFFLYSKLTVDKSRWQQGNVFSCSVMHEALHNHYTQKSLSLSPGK
light: DIQMTQSPSSLSASVGDRVTITCRASGNIHNYLTWYQQTPGKAPKLLIYNAKTLADGVPSRFSGSGSGTDYTFTISSLQPEDIATYYCQHFWSIPYTFGQGTKLQITRTVAAPDIQMTQSPSSLSASVGDRVTITCRASQDISNMLNWYQQKPGKTPKLLIYYTSRLYPGVPSRFSGSGSGTDYTFTISSLQPEDIATYFCQQGKTLPYAFGQGTKLEIKRTVAAPSVFIFPPSDEQLKSGTASVVCLLNNFYPREAKVQWKVDNALQSGNSQESVTEQDSKDSTYSLSSTLTLSKADYEKHKVYACEVTHQGLSSPVTKSFNRGEC
notes: DVD-Ig, outer (N-terminal) domain anti-IL-1β, inner domain anti-IL-1α, short linkers
Regarding B4, in test [1], the “Human IL-1β Neutralization Assay EC50” value was found to be 0.0099 nM. Besides, the “Cyno IL-1β Neutralization Assay EC50 (IL-1 induced hIL-8, MRC-5 cells)” value in test [4] stood at 0.0056 nM. Besides, in [2], the Kd was 0.0161 nM, the koff amounted to 2.65e-05 s⁻¹ and the kon worked out at 1.66e+06 M⁻¹ s⁻¹. Further, in [5], the Kd was determined as 0.569 nM, the koff turned out to be 3.25e-05 s⁻¹ and the kon stood at 56900 M⁻¹ s⁻¹. In [6], the “Human IL-1α Neutralization Assay EC50 (IL-1 induced hIL-8, MRC-5 cells)” value (shortened to “Human IL-1α Neutralization Assay EC50”) came out at 0.0538 nM. Moreover, the “Cyno IL-1α Neutralization Assay EC50 (IL-1 induced hIL-8, MRC-5 cells)” value (shortened to “Cyno IL-1α Neutralization Assay EC50”) in [7] came out at 0.0626 nM.

B5: 3D12.10/15 (antibody, human IgG1, kappa, L234A L235A, V domains shown)
VH: EVQLVQSGAEVKKPGVSVKVSCKASGYTFTTYGMHWVRQAPGQGLEWMGWINTYTGESTYADDFQGRVTFTLDTSTSTAYMELSSLRSEDTAVYFCARGIYYYGSSYAMNYWGQGTTVTVSS
VL: DIQMTQSPSSLSASVGDRVTITCRASQDISNMLNWYQQKPGKTPKLLIYYTSRLYPGVPSRFSGSGSGTDYTFTISSLQPEDIATYFCQQGKTLPYAFGQGTKLEIKR
notes: Parent anti-IL-1α antibody; also called 3D12 10/15VH; 3D12 10/15VL
Take B5: in test [5], the Kd is 0.115 nM, the koff was 4.1e-05 s⁻¹ and the kon stood at 355000 M⁻¹ s⁻¹. In addition, the EC50 in [8] was found to be 0.007 nM. Besides, the “Human IL-1α Neutralization Assay EC50” value in test [6] stood at 0.0057 nM. In addition, in [9], the dissociation constant (Kd) was determined as 0.0578 nM, the koff worked out at 2.25e-05 s⁻¹ and the kon came out at 389000 M⁻¹ s⁻¹. The “Cyno IL-1α Neutralization Assay EC50” value in test [7] was 0.0126 nM.

B6: 3D12.8 (antibody, human IgG1, kappa, L234A L235A, V domains shown)
VH: EIQLVQSGSELKKPGASVKVSCKASGYTFTNYGMNWVRQAPGQDLERMAWINTYTGESTYADDFKGRFVFSLDTSVSTAYLQISSLKAEDTAVYFCARGIYYYGSSYAMDYWGQGTTVTVSS
VL: DIQMTQSPSSLSASVGDRVTITCRASQDISNCLNWYQQKPGKTPKLLIYYTSRLHSGVPSRFSGSGSGTDYTFTISSLQPEDIATYFCQQGKTLPYAFGQGTKLEIKR
notes: Parent anti-IL-1α antibody; also called 3D12.8VH; 3D12.8VL
On to B6, for which, in test [5], the Kd came to 1.35 nM, the koff is 0.00274 s⁻¹ and the kon was determined as 2.04e+06 M⁻¹ s⁻¹. Moreover, the EC50 in test [8] was 0.028 nM.

B7: 3D12r16 (antibody, human IgG1, kappa, L234A L235A, V domains shown)
VH: EVQLVQSGAEVKKPGASVKVSCKASGYTFKYYGMNWVRQAPGQGLERMGWINTYTGQSTYADDFKGRVTFTLDTSTSTAYMELSSLRSEDTAVYYCARDIYYYGSDFAMDYWGQGTTVTVSS
VL: DIQMTQSPSSLSASVGDRVTITCRASQDISNMLNWYQQKPGKAPKLLIYYTSRLKPGVPSRFSGSGSGTDYTFTISSLQPEDIATYFCQQGKTAPYTFGQGTKLEIKR
notes: Parent anti-IL-1α antibody; also called 3D12r16VH; 3D12r16VL
Take B7: in test [5], the Kd stood at 0.031 nM, the dissociation rate constant (koff) is 2.77e-05 s⁻¹ and the kon was 900000 M⁻¹ s⁻¹. In addition, the EC50 in test [8] amounted to 0.072 nM. The “Human IL-1α Neutralization Assay EC50” value in test [6] was 0.00056 nM. Also, in test [7], the “Cyno IL-1α Neutralization Assay EC50” value came to 0.0008 nM.

B8: 3D12.16 (antibody, human IgG1, kappa, L234A L235A, V domains shown)
VH: EIQLVQSGAEVKKPGASVKVSCKASGYTFTNYGMNWVRQAPGQDLERMAWINTYTGESTYADDFKGRFTFTLDTSTSTAYMELSSLRSEDTAVYFCARGIYYYGSSYAMDYWGQGTTVTVSS
VL: DIQMTQSPSSLSASVGDRVTITCRASQDISNCLNWYQQKPGKTPKLLIYYTSRLHSGVPSRFSGSGSGTDYTFTISSLQPEDIATYFCQQGKTLPYAFGQGTKLEIKR
notes: Parent anti-IL-1α antibody; also called 3D12.16VH; 3D12.16VL
B8: in test [5], the Kd amounted to 2.09 nM, the off-rate constant (koff) turned out to be 0.00253 s⁻¹ and the kon was found to be 1.21e+06 M⁻¹ s⁻¹. Further, in test [8], the EC50 is 0.01 nM.
